Paper PMC7585203 (Epigenetics & Chromatin, 2020)
Where a chain is given by its changes, count along the chain named. Where no end group is shown, it is not given here.

What was measured:
Assay in all cases: fluorescence polarisation; FAM-labelled peptide with GST-tagged domains or MBP-tagged full-length UHRF1; as described in ref. 4, plotted as change in anisotropy
Details in all cases: both partners purified
[1] = biological target: T1, GST-tagged UHRF1 tandem Tudor domain (TTD, a.a. 125–285) ( (printed UniProt entry is …, UniProt Q96T88 125-285))
T1 construct: also called UHRF1 TTD; source: recombinant GST fusion
T1 sequence (looked up): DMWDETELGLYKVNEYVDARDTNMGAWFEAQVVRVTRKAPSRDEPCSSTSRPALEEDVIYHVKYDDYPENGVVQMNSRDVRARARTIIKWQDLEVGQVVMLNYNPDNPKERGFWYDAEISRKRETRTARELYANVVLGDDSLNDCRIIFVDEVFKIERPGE

[2] = biological target: T2, GST-tagged UHRF1 TTD–PHD R295A/R296A ( (printed UniProt entry is …, UniProt Q96T88 125-364, R295A | R296A))
T2 construct: also called mutation of L2 (R295A/R296A); TTD–PHD mutant; source: recombinant GST fusion
T2 sequence (looked up): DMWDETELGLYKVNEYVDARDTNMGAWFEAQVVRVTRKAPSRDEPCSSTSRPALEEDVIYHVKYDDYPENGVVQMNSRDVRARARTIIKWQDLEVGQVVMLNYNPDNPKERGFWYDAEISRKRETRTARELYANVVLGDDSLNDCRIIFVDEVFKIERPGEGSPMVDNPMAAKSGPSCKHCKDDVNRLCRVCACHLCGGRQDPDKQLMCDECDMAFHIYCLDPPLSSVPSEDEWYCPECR

[3] = biological target: T3, GST-tagged UHRF1 TTD–PHD S298E ( (printed UniProt entry is …, UniProt Q96T88 125-364, S298E))
T3 construct: also called phospho-mimetic mutation in L2; source: recombinant GST fusion
T3 sequence (looked up): T2 sequence (looked up) with A171R, A172R, S174E

[4] = biological target: T4, UHRF1 full-length (a.a. 1–793), MBP fusion ( (printed UniProt entry is …, UniProt Q96T88 1-793))
T4 construct: also called recombinant full-length UHRF1; full-length UHRF1; not shown: MBP, N-terminal, kept
T4 sequence (looked up): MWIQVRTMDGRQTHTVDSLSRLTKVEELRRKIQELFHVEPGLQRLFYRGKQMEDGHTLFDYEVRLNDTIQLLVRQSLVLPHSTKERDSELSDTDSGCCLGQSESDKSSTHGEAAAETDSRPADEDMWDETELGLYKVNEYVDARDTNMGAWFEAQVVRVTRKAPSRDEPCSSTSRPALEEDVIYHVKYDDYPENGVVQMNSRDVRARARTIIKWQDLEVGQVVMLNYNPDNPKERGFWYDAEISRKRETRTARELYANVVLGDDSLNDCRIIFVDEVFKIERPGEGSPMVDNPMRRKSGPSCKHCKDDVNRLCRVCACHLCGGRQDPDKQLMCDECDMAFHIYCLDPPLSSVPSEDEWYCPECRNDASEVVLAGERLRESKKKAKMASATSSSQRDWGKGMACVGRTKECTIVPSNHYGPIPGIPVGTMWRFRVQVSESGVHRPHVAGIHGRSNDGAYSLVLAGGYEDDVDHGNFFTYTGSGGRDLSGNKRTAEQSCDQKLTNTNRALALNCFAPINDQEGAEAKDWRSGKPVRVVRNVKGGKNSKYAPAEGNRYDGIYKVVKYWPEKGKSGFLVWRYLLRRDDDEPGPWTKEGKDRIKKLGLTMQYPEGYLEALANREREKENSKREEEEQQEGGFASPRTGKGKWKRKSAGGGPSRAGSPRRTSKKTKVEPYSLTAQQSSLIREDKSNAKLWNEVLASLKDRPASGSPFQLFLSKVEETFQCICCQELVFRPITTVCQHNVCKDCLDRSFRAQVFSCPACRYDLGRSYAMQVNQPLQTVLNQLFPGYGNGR

B1: FAM-LIG1(118–130)K126me2 peptide (peptide)
peptide: {FAM}-IPKRRTARK(Me2)QLPK
modifications: not fully specified (C-terminus); printed as FAM-LIG1(118–130)K126me2 peptide
notes: DNA ligase 1 (LIG1), residues 118-130; also called FAM-LIG1K126me2; LIG1K126me2 peptide; source: bought: GenScript (synthetic peptide)
- Kd [1]: 30 to 80 nM
- binding result [2]: binds
- binding result [3]: binds
- Kd [4]: 41 nM
